Assay results published in the supplement of paper PMC5998384.

Experiments:
[1] = system: HeLa Kyoto; assay: thermal stability score vs G1/S (z-score of summed log2 fold changes over temperatures); higher = more thermally stable than in G1/S
[2] = system: HeLa Kyoto; assay: melting temperature (median over replicates), in situ; higher = more thermally stable
[3] = system: HeLa Kyoto; assay: solubility in G1/S (NP-40 vs SDS abundance) (log2 ratio); higher = more soluble; details: cell cycle stage: G1/S
[4] = system: HeLa Kyoto; assay: solubility change mitosis vs G1/S (difference of NP-40 vs SDS log2 ratios) (log2 ratio difference); higher = more soluble in mitosis
[5] = cell cycle stage: early G1 (4.5 h after nocodazole release)
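For melting temperature (median over replicates), in situ in this document: HeLa Kyoto cells synchronized by double thymidine or nocodazole block, proteins quantified by TMT10plex mass spectrometry, three independent biological replicates.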
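For solubility change mitosis vs G1/S (difference of NP-40 vs SDS log2 ratios) in this document: synchronized HeLa Kyoto cells (double thymidine block for G1/S, nocodazole release for mitosis), protein amounts in NP-40 versus SDS lysates quantified by mass spectrometry, three biological replicates.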
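For solubility in G1/S (NP-40 vs SDS abundance) in this document: HeLa Kyoto cells arrested at G1/S by double thymidine block, proteins quantified by TMT10plex mass spectrometry in mild NP-40 versus SDS extracts, three biological replicates.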
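For thermal stability score vs G1/S (z-score of summed log2 fold changes over temperatures) in this document: synchronized HeLa Kyoto cells, proteins quantified by TMT10plex mass spectrometry, three biological replicates, mitosis taken 0.5 h after nocodazole release, G1/S directly after double thymidine block.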

Sequence	thermal stability score [1, 5]	thermal stability score ([1]; cell cycle stage: mitosis)	melting temperature ([2]; cell cycle stage: G1/S) [°C]	melting temperature ([2]; cell cycle stage: mitosis) [°C]	solubility in G1/S (log2) [3]	solubility change mitosis (log2) [4]
MIPNGYLMFEDENFIESSVAKLNALRKSGQFCDVRLQVCGHEMLAHRAVLACCSPYLFEIFNSDSDPHGISHVKFDDLNPEAVEVLLNYAYTAQLKADKELVKDVYSAAKKLKMDRVKQVCGDYLLSRMDVTSCISYRNFASCMGDSRLLNKVDAYIQEHLLQISEEEEFLKLPRLKLEVMLEDNVCLPSNGKLYTKVINWVQRSIWENGDSLEELMEEVQTLYYSADHKLLDGNLLDGQAEVFGSDDDHIQFVQKKPPRENGHKQISSSSTGCLSSPNATVQSPKHEWKIVASEKTSNNTYLCLAVLDGIFCVIFLHGRNSPQSSPTSTPKLSKSLSFEMQQDELIEKPMSPMQYARSGLGTAEMNGKLIAAGGYNREECLRTVECYNPHTDHWSFLAPMRTPRARFQMAVLMGQLYVVGGSNGHSDDLSCGEMYDSNIDDWIPVPELRTNRCNAGVCALNGKLYIVGGSDPYGQKGLKNCDVFDPVTKLWTSCAPLNIRRHQSAVCELGGYLYIIGGAESWNCLNTVERYNPENNTWTLIAPMNVARRGAGVAVLNGKLFVCGGFDGSHAISCVEMYDPTRNEWKMMGNMTSPRSNAGIATVGNTIYAVGGFDGNEFLNTVEVYNLESNEWSPYTKIFQF [IVNS1ABP]	-2.78	-1.82	50.7	49.2	-0.0792	-0.0597
MIRRVLPHGMGRGLLTRRPGTRRGGFSLDWDGKVSEIKKKIKSILPGRSCDLLQDTSHLPPEHSDVVIVGGGVLGLSVAYWLKKLESRRGAIRVLVVERDHTYSQASTGLSVGGICQQFSLPENIQLSLFSASFLRNINEYLAVVDAPPLDLRFNPSGYLLLASEKDAAAMESNVKVQRQEGAKVSLMSPDQLRNKFPWINTEGVALASYGMEDEGWFDPWCLLQGLRRKVQSLGVLFCQGEVTRFVSSSQRMLTTDDKAVVLKRIHEVHVKMDRSLEYQPVECAIVINAAGAWSAQIAALAGVGEGPPGTLQGTKLPVEPRKRYVYVWHCPQGPGLETPLVADTSGAYFRREGLGSNYLGGRSPTEQEEPDPANLEVDHDFFQDKVWPHLALRVPAFETLKVQSAWAGYYDYNTFDQNGVVGPHPLVVNMYFATGFSGHGLQQAPGIGRAVAEMVLKGRFQTIDLSPFLFTRFYLGEKIQENNII [FOXRED1]	1.19	0.0541	51.5	51.6	-0.0625	0.0476
MIWYILIIGILLPQSLAHPGFFTSIGQMTDLIHTEKDLVTSLKDYIKAEEDKLEQIKKWAEKLDRLTSTATKDPEGFVGHPVNAFKLMKRLNTEWSELENLVLKDMSDGFISNLTIQRQYFPNDEDQVGAAKALLRLQDTYNLDTDTISKGNLPGVKHKSFLTAEDCFELGKVAYTEADYYHTELWMEQALRQLDEGEISTIDKVSVLDYLSYAVYQQGDLDKALLLTKKLLELDPEHQRANGNLKYFEYIMAKEKDVNKSASDDQSDQKTTPKKKGVAVDYLPERQKYEMLCRGEGIKMTPRRQKKLFCRYHDGNRNPKFILAPAKQEDEWDKPRIIRFHDIISDAEIEIVKDLAKPRLRRATISNPITGDLETVHYRISKSAWLSGYENPVVSRINMRIQDLTGLDVSTAEELQVANYGVGGQYEPHFDFARKDEPDAFKELGTGNRIATWLFYMSDVSAGGATVFPEVGASVWPKKGTAVFWYNLFASGEGDYSTRHAACPVLVGNKWVSNKWLHERGQEFRRPCTLSELE [P4HA1]	3.59	6.2	55.3	54.1	0.216	-0.0564
MKAFHTFCVVLLVFGSVSEAKFDDFEDEEDIVEYDDNDFAEFEDVMEDSVTESPQRVIITEDDEDETTVELEGQDENQEGDFEDADTQEGDTESEPYDDEEFEGYEDKPDTSSSKNKDPITIVDVPAHLQNSWESYYLEILMVTGLLAYIMNYIIGKNKNSRLAQAWFNTHRELLESNFTLVGDDGTNKEATSTGKLNQENEHIYNLWCSGRVCCEGMLIQLRFLKRQDLLNVLARMMRPVSDQVQIKVTMNDEDMDTYVFAVGTRKALVRLQKEMQDLSEFCSDKPKSGAKYGLPDSLAILSEMGEVTDGMMDTKMVHFLTHYADKIESVHFSDQFSGPKIMQEEGQPLKLPDTKRTLLFTFNVPGSGNTYPKDMEALLPLMNMVIYSIDKAKKFRLNREGKQKADKNRARVEENFLKLTHVQRQEAAQSRREEKKRAEKERIMNEEDPEKQRRLEEAALRREQKKLEKKQMKMKQIKVKAM [CCDC47]	0.286	-1.13	52.9	52.7	-0.0628	0.000886
MKCFFPVLSCLAVLGVVSAQRQVTVQEGPLYRTEGSHITIWCNVSGYQGPSEQNFQWSIYLPSSPEREVQIVSTMDSSFPYAIYTQRVRGGKIFIERVQGNSTLLHITDLQARDAGEYECHTPSTDKQYFGSYSAKMNLVVIPDSLQTTAMPQTLHRVEQDPLELTCEVASETIQHSHLSVAWLRQKVGEKPVEVISLSRDFMLHSSSEYAQRQSLGEVRLDKLGRTTFRLTIFHLQPSDQGEFYCEAAEWIQDPDGSWYAMTRKRSEGAVVNVQPTDKEFTVRLETEKRLHTVGEPVEFRCILEAQNVPDRYFAVSWAFNSSLIATMGPNAVPVLNSEFAHREARGQLKVAKESDSVFVLKIYHLRQEDSGKYNCRVTEREKTVTGEFIDKESKRPKNIPIIVLPLKSSISVEVASNASVILEGEDLRFSCSVRTAGRPQGRFSVIWQLVDRQNRRSNIMWLDRDGTVQPGSSYWERSSFGGVQMEQVQPNSFSLGIFNSRKEDEGQYECHVTEWVRAVDGEWQIVGERRASTPISITALEMGFAVTAISRTPGVTYSDSFDLQCIIKPHYPAWVPVSVTWRFQPVGTVEFHDLVTFTRDGGVQWGDRSSSFRTRTAIEKAESSNNVRLSISRASDTEAGKYQCVAELWRKNYNNTWTRLAERTSNLLEIRVLQPVTKLQVSKSKRTLTLVENKPIQLNCSVKSQTSQNSHFAVLWYVHKPSDADGKLILKTTHNSAFEYGTYAEEEGLRARLQFERHVSGGLFSLTVQRAEVSDSGSYYCHVEEWLLSPNYAWYKLAEEVSGRTEVTVKQPDSRLRLSQAQGNLSVLETRQVQLECVVLNRTSITSQLMVEWFVWKPNHPERETVARLSRDATFHYGEQAAKNNLKGRLHLESPSPGVYRLFIQNVAVQDSGTYSCHVEEWLPSPSGMWYKRAEDTAGQTALTVMRPDASLQVDTVVPNATVSEKAAFQLDCSIVSRSSQDSRFAVAWYSLRTKAGGKRSSPGLEEQEEEREEEEEEDDDDDDDPTERTALLSVGPDAVFGPEGSPWEGRLRFQRLSPVLYRLTVLQASPQDTGNYSCHVEEWLPSPQKEWYRLTEEESAPIGIRVLDTSPTLQSIICSNDALFYFVFFYPFPIFGILIITILLVRFKSRNSSKNSDGKNGVPLLWIKEPHLNYSPTCLEPPVLSIHPGAID [IGSF3]	-2.57	-2.96	54.3	53.8	-0.0153	-0.047
